Laboratory results from article PMC3894786 (Cell, 2012).

Experiments:
Assay in all cases: LUMIER with BACON
[1] = target: STK38 (human, UniProt Q15208 1-465)
[2] = target: LCK (human, UniProt P06239 1-509)
[3] = target: CDK6 (human, UniProt Q00534 1-326)
[4] = target: FGFR3 (human, UniProt P22607 23-806)
FGFR3, sequence (P22607 23-806): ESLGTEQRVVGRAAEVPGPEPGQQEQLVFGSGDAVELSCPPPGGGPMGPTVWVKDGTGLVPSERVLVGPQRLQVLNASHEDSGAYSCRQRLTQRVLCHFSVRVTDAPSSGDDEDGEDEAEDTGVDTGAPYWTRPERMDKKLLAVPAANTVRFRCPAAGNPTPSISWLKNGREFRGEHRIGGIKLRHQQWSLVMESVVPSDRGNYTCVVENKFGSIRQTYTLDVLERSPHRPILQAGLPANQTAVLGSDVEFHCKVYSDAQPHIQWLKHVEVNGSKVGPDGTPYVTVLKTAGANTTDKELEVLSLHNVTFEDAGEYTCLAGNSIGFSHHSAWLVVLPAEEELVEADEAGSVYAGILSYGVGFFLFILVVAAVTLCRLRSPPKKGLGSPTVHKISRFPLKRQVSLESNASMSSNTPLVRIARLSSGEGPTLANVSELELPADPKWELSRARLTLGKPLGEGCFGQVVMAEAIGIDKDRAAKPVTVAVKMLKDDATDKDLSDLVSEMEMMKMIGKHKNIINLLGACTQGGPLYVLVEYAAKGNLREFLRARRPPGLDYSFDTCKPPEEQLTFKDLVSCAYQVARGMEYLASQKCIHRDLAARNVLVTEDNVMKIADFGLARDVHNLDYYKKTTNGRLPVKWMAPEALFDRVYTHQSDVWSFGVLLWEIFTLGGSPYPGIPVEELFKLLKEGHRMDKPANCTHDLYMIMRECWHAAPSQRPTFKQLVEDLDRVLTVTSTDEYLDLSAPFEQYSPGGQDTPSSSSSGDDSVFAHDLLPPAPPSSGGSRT

STK38, sequence (Q15208 whole entry): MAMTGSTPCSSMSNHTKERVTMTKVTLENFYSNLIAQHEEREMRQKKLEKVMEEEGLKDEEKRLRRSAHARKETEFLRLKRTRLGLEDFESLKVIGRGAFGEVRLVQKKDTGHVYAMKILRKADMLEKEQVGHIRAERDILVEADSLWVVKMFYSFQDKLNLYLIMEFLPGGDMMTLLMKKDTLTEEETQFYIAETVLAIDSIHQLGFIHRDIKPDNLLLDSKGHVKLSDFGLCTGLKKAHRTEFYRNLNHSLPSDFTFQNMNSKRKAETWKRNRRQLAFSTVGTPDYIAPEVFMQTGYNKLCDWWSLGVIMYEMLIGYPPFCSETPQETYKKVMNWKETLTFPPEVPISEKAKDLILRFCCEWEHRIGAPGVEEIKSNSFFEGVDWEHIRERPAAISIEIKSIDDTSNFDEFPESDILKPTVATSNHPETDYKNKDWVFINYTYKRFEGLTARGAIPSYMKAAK
CDK6, sequence (Q00534 whole entry): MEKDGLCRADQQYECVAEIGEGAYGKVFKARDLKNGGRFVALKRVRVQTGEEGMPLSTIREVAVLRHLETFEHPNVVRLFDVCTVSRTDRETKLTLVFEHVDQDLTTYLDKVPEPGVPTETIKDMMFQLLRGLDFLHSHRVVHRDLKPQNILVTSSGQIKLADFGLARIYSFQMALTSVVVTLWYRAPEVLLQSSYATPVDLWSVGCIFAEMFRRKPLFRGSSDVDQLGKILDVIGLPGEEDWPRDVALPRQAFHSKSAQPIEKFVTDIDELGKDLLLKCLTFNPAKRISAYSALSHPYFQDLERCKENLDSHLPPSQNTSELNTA
LCK, sequence (P06239 whole entry): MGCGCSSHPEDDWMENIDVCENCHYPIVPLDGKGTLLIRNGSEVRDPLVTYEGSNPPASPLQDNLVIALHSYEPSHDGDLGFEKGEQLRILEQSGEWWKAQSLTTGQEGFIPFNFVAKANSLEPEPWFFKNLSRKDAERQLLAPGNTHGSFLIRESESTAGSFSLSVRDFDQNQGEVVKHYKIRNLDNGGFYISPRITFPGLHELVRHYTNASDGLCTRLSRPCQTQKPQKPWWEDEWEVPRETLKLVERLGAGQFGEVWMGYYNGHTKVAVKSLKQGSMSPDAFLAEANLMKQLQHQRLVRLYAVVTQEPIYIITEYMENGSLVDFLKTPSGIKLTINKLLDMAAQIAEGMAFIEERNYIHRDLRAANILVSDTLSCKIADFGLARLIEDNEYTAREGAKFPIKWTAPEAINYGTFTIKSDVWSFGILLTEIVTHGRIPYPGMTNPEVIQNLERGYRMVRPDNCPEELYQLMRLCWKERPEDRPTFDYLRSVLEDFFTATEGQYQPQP

half-life of dissociation after 500 nM ganetespib [1]: ~3 min | half-life of dissociation after 500 nM ganetespib [2]: ~3 min | half-life of dissociation after 500 nM ganetespib [3]: ~3 min | half-life of dissociation after 500 nM ganetespib [4]: 29 min
B1: Renilla luciferase-tagged HSP90β (natural protein)
chain: not shown
